Test results reported in article PMC3617561 (Biochemistry, 2012).
Residue numbers refer to the chain shown, from its start.

Assays:
USP1(S313A) = molecular target: T1, USP1(S313A) (human, UniProt O94782 1-785, G670A | G671A | S313A); assay: cell-based or functional assay
T1 sequence (looked up): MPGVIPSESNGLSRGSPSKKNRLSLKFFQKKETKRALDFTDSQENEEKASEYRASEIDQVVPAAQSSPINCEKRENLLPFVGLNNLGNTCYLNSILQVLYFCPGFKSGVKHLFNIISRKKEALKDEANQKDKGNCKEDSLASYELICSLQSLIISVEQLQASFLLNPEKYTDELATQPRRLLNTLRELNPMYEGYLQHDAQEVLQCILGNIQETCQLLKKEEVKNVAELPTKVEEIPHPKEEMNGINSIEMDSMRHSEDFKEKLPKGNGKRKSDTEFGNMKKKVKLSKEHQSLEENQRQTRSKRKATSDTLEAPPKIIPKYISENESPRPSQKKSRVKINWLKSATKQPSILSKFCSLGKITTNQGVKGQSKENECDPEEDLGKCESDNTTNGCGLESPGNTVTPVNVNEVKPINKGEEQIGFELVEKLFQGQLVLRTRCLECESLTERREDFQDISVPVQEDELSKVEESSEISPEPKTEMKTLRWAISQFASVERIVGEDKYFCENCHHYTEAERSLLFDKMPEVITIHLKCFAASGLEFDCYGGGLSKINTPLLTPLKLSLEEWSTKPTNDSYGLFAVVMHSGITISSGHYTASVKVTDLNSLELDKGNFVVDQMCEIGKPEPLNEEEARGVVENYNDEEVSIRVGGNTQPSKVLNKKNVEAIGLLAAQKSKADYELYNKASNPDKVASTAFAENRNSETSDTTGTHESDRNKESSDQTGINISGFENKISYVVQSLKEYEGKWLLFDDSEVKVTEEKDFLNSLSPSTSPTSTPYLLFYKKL

USP1(S313D) = molecular target: T2, USP1(S313D) (human, UniProt O94782 1-785, G670A | G671A | S313D); assay: cell-based or functional assay
T2 sequence (looked up): T1 sequence (looked up) with A313D

B1: UAF1 (USP1-associated factor 1), six-His-tagged, N-terminally HA-tagged (natural protein)
chain: not shown
- kcat/Km of USP1(S313A) purified together with His-tagged UAF1, on Ub-AMC (USP1(S313A)): 1100 M⁻¹ s⁻¹
- kcat/Km of the copurified USP1(S313D)/UAF1 complex on Ub-AMC (USP1(S313D)): 250000 M⁻¹ s⁻¹
